Reference: patent US8648045B2, “VDAC1 compositions and methods of use thereof for regulating apoptosis” (Ben Gurion University of the Negev Research and Development …, priority 2005, dated 2014)

T1: mitochondrial bound HK-I (Rattus norvegicus, UniProt P05708)
T1 construct: from tissue; host or cells: rat brain mitochondria
T1 sequence (P05708 1-918): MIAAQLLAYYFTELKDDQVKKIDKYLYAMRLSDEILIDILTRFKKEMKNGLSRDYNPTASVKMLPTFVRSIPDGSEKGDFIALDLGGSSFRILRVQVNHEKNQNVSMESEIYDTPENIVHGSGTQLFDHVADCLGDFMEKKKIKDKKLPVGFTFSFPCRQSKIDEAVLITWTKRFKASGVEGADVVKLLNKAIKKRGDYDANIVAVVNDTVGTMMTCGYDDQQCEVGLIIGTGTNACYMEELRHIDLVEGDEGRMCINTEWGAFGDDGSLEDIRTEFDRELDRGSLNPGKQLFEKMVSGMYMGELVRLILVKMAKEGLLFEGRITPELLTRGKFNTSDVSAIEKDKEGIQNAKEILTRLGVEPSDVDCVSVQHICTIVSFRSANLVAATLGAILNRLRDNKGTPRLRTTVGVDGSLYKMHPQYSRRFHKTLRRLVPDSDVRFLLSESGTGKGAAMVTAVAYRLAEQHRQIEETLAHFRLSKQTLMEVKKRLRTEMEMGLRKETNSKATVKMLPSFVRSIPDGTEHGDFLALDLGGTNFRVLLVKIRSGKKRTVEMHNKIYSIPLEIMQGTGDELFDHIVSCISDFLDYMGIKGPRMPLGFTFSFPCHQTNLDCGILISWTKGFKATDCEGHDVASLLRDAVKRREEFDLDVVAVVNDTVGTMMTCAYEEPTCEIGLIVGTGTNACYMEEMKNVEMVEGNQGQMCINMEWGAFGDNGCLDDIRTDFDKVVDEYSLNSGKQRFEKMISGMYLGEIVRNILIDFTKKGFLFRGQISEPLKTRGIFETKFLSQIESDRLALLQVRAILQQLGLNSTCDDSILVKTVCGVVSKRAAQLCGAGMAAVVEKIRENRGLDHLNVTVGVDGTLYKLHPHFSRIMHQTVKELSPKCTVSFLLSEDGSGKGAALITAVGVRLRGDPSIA

B1: HK-I: Hexokinase-I, anti-apoptotic mitochondrial protein that binds to VDAC; purified from rat brain or over-expressed recombinant (protein)
chain: T1 sequence (P05708 1-918)

Experiments:
mitochondrial bound HK-I = target: T1, mitochondrial bound HK-I; assay: Detachment of mitochondria-bound HK-I; type: biochemical; conditions: peptide N
Bcl2 = target: T2, Bcl2 (Homo sapiens, UniProt P10415); conditions: expression of peptide N in cells overexpressing Bcl2-GFP; Abu Hamad et al., 2009; cited from earlier work
T2 construct: GFP; expressed in transfected cells
T2 sequence (P10415 whole entry, species assumed): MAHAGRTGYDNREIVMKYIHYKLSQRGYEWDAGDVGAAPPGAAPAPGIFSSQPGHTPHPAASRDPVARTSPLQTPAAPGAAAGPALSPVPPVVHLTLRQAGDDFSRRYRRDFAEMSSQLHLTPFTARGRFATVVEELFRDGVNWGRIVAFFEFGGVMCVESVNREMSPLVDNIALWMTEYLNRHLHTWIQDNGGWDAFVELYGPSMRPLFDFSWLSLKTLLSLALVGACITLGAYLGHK

E72Q-mVDAC1 = target: T3, E72Q-mVDAC1 (Mus musculus, UniProt Q60932, E72Q); assay: VDAC channel recording in planar lipid bilayer (PLB); type: biochemical; conditions: HK-I 28.6 mU/ml, 5 min; voltage step 0 to −20 mV; 0.5 M NaCl
T3 construct: made in house; host or cells: yeast (purified from mitochondria of yeast expressing mutated mVDAC1)
T3 sequence (Q60932 14-296 E72Q limits assumed): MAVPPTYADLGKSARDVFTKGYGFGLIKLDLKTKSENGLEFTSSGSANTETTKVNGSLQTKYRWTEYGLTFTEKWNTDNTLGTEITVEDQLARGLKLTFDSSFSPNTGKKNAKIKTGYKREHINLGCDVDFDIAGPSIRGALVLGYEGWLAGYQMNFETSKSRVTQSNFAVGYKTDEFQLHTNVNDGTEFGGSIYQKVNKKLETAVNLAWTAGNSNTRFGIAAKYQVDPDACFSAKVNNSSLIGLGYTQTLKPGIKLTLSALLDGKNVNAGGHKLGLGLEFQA
Procedure: (§1) Native and mutated mVDAC1 were extracted with lauryldimethylamine N-oxide (LDAO) from mitochondria isolated from yeast expressing various VDACs, and purified by chromatography on hydroxyapatite followed by carboxymethyl (CM)-cellulose where LDAO was replaced by β-OG (β-octylglucoside).
(§2) Reconstitution of purified VDAC into a planar lipid bilayer (PLB) multi-channel current recording and data analyses were carried as follows. Briefly, PLB were prepared from soybean asolactin dissolved in n-decane (50 mg/ml) in a chamber containing 10 mM HEPES/KOH pH 7.4 and 0.5 or 1M NaCl (cis/trans). Only PLBs with a resistance greater than 100 GΩ were used. Purified VDAC (about 1 ng) was added to the chamber defined as the cis side. After one or a few channels inserted into the PLB, excess protein was removed by perfusion of the cis chamber with 20 volumes of a solution (with the same composition as before perfusion), in order to prevent further protein incorporation. Currents were recorded under voltage-clamp mode using a Bilayer Clamp amplifier (Warner Instrument, USA). The currents were measured with respect to the trans side of the membrane (ground). The currents were low-pass filtered at 1 kHz, using a Bessal filter (Frequency Devices, USA) and digitized on-line using a Digidata 1200 interface board and pCLAMP 6 software (Axon Instruments). Sigma Plot 2000 scientific software was used for data analyses. Experiments were performed at 23-25° C.
(§3) FIG. 1A: Purified recombinant native or E72Q-mutated mVDAC1 was reconstituted into a PLB (planar lipid bilayer) in symmetrical solutions of 0.5 M NaCl. Currents through VDAC1 channel in response to a voltage step from zero to −20 mV were recorded before and 5 min after the addition of HK-I (28.6 mU/ml). The dashed lines indicate the zero-current level. […] FIG. 1C: Cytochrome c release was assayed, using a monoclonal anti-cytochrome c antibody, in the absence or the presence of HK-I (1 U/ml), chymotrypsin-treated HK-I (1 U/ml) or CsA (10 micro M).
(§4) RuR, known to interact with several Ca^2+ binding proteins and to inhibit Ca^2+ transport in mitochondria, inhibited channel activity of native but not of E72Q-mutated VDAC1 (FIG. 5E). Purified recombinant native and E72Q-mVDAC1 variant were reconstituted into a planar lipid bilayer (PLB) and the currents produced in response to voltages stepped from a holding potential of 0 mV to −20 mV were recorded. […] The level of inhibition calculated from […] different experiments was 89.2±2.8% (mean±SD, n=9). In contrast, the channel activity of E72Q-mVDAC1 was not inhibited by RuR in all ten experiments.

[1] = target: T4, recombinant native mVDAC1 (Mus musculus, UniProt Q60932); assay: as above; type: biochemical; conditions: HK-I 28.6 mU/ml, 5 min; voltage step 0 to −20 mV; 0.5 M NaCl
T4 construct: made in house; host or cells: yeast (purified from mitochondria of yeast expressing mVDAC1)
T4 sequence (Q60932 14-296 limits assumed): as the sequence (Q60932 14-296 E72Q limits assumed) above, with Q59E counted along it
Procedure: as §1, §2, §3, §4

U937 cells = assay: HK-I over-expression protection against apoptotic cell death in double-transfected cells; type: cell-based, human; conditions: staurosporine (STS)
Procedure: U937 cells were transfected with pcDNA3.1-HisA or pcDNA3.1-HisA-HK-I (neomycin resistance; provided by Dr. J. E. Wilson, University of Michigan) by electroporation, and grown in complete RPMI 1640 with neomycin ([…]). After 12 days, the selected cells were transfected with pEGFP, pEGFP-mVDAC1 or pEGFP-E72Q-mVDAC1 and were grown in the presence of neomycin ([…]). The viability of double-transfected cells was analyzed during 48 to 76 hr.
The effect of HK-I over-expression on apoptotic cell death of the GFP-tagged version of native and E72Q-mVDAC1 over-expressing cells was examined.
Since VDAC1 overexpression induces cell death, U937 cells (FIG. 4A, 4B) or T-Rex™ 293 human embryonic kidney cells (FIG. 4B) were first transformed to stably over-express HK-I and then transfected with native, E65Q, E72Q, K73L, D77N, N75A, or G67A mutated mVDAC1-GFP. […] This β-loop includes amino acid residues T64 to about N78.

mitochondria = assay: Release of cytochrome c from mitochondria; type: biochemical, rat; conditions: HK-I 1 U/ml; Western blot
Procedure: Mitochondria (0.5 mg/ml) were incubated with or without 1 U/ml of HK-I for 20 min in a solution containing 150 mM KCl, 25 mM NaHCO3, 5 mM succinate, 1 mM MgCl2, 3 mM KH2PO4, 20 mM HEPES, pH 7.4. Swelling was monitored after the addition of 200 μM Ca^2+. Following complete swelling, the samples were centrifuged and mitochondrial pellets (25 μg) or supernatant (40 μl) were subjected to SDS-PAGE and Western blot analyses using monoclonal anti-cytochrome C antibodies.
as §3
The effects of HK-I are similar to those of the well-known inhibitor of PTP, cyclosporine A (CsA) (FIGS. 1C and 2B).

[2] = test system: permeability transition pore (PTP); assay: PTP opening monitored by Ca2+ accumulation and mitochondrial swelling; type: biochemical, rat; conditions: Ca2+ accumulation and swelling of energized mitochondria
Procedure: Ca^2+ uptake by freshly prepared rat liver mitochondria (0.5 mg/ml) was assayed for 1 to 20 minutes at 30° C. in the presence of 225 mM mannitol, 75 mM sucrose, 120 μM CaCl2 (containing 3×10^4 cpm/nmol [^45Ca^2+]), 5 mM HEPES/KOH, 5 mM succinate and 0.1 mM Pi, pH 7.0. Uptake of ^45Ca^2+ was terminated by rapid Millipore filtration followed by a wash with 5 ml of 150 mM KCl.
Ca^2+-induced mitochondria large amplitude swelling was assayed in freshly-prepared mitochondria under the same conditions as for Ca^2+ accumulation, except that the temperature was 24° C. Cyclosporine A (CsA)-sensitive mitochondrial swelling was initiated upon addition of Ca^2+ (0.2 mM) to the sample. Absorbance changes at 520 nm were monitored every 15-20 sec with an Ultraspec 2100 spectrophotometer.
The failure of non-binding species of HK, such as yeast HK, or trypsin- or chymotrypsin-treated HK-I (FIG. 2D) to prevent PTP opening, confirmed the specificity of the HK-I effect, and of the requirement of the HK-I N-terminal region for its interaction with VDAC.
Mitochondrial swelling was assayed in the absence (control ●) or the presence of HK-I (gray ●) and in presence HK-I pre-incubated with peptide LP1. Mitochondrial swelling was assayed as in FIG. 2 in the absence and the presence of peptide LP1 (0.1 mM or 0.3 mM), brain HK-I (0.25 U/ml) or with HK-I pre-incubated for 10 min with LP1. […]

Molecule | detachment or prevention of HK-1 binding to the mitochondria (mitochondrial bound HK-I) | effect on anti-apoptotic effect of Bcl2 against STS-induced apoptosis (Bcl2) | effect of HK-I on VDAC1 channel (E72Q-mVDAC1) | effect of HK-I on VDAC1 channel [1] | protection by HK-I over-expression against STS-induced apoptosis (U937 cells) | release of cytochrome c from mitochondria (mitochondria) | prevention of PTP opening [2]
MAVPPTYADLGKSARDVFTKGYGFGL [Peptide N, 26 amino acid peptide derived from the N-terminal cytosolic segment of VDAC1, amino acids 1-26] | Detachment or prevention of HK-1 binding to the mitochondria was also demonstrated | reversed the anti-apoptotic effect of BCl2 |  |  |  |  | 
B1 |  |  | able to close native VDAC1 but not mutated E72Q-VDAC1 | induces its closure | protects against apoptosis induced by STS | prevented the release of cytochrome c from mitochondria | inhibited PTP opening
